Results reported in the supplement of paper PMC11196671.

Assays:
[1] = MHET released, HPLC; higher = more MHET released; extreme values may be limits of the assay; details: 24 h
Description: (§1)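 Purified PET hydrolases, 2.5 ug enzyme on 3.5 mg amorphous PET film (aFilm) or crystalline PET powder (cryPow) in 0.5 mL of 50 mM buffer (NaCitrate pH 4.5/5.5, NaPhosphate 6.5/7.5, glycine 8.5/9.5) at 60 or 70 C with shaking for 24 h. Total aromatic product by UV-Vis (260/280 nm, blank-subtracted, normalised per mg enzyme) and individual TPA, MHET, BHET concentrations by UHPLC-DAD at 240 nm; duplicate reactions.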

[2] = terephthalic acid (TPA) released, HPLC; higher = more TPA released; extreme values may be limits of the assay; details: 24 h
Description: as §1

[3] = PET hydrolysis product formed (TPA+MHET+BHET, UV-Vis) per mg enzyme (mmol/mg enzyme); higher = more PET depolymerisation activity; extreme values may be limits of the assay; details: 2 h
Description: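 Purified PET hydrolases (His-SUMO cleaved, E. coli C41(DE3) small-scale expression), 2.5 ug enzyme on 3.5 mg amorphous PET film (aFilm) or crystalline PET powder (cryPow) in 0.5 mL of 50 mM buffer (NaCitrate pH 4.5/5.5, NaPhosphate 6.5/7.5, glycine 8.5/9.5) at 60 or 70 C with shaking for 2 h. Soluble aromatic products (TPA+MHET+BHET) were quantified by UV-Vis at 260/280 nm, blank-subtracted against the no-enzyme control, and normalised per mg enzyme; duplicate reactions.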

[4] = as above; details: 24 h
Description: as §1

ADNPYQRGPDPTNASIEAATGPFAVGTQPIVGASGFGGGQIYYPTDTSQTYGAVVIVPGFISVWAQLAWLGPRLASQGFVVIGIETSTITDLPDPRGDQALAALDWATTRSPVRSRIDRTRLAAAGWSMGGGGLRRAACQRPSLKAIVGMAPWNTEKNWSCVTVPTLFFGGSSDAVASPNDHAKPFYNSITRAEKDYIELCNADHFFPTSANTTMAKYFISWLKRWVDNDTRYTQFLCPGPSTGLFAPVCASMNTCPF [CaPETaseM9]
Details | MHET released, [1] [mM] | PET hydrolysis product formed, [3] | PET hydrolysis product formed, [4] | terephthalic acid, [2] [mM]
PET substrate: aFilm, 60 °C, pH 4.5 | 0.00378 | 0 | 0 | 0.00338
PET substrate: aFilm, 60 °C, pH 5.5 | 0.0574 | 0 | 0.0213 | 0.0407
PET substrate: aFilm, 60 °C, pH 6.5 | 0.106 | 0.00371 | 0.0426 | 0.0535
PET substrate: aFilm, 60 °C, pH 7.5 | 0.299 | 0.0032 | 0.132 | 0.165
PET substrate: aFilm, 60 °C, pH 8.5 | 0.108 | 0.0152 | 0.0575 | 0.0537
PET substrate: aFilm, 60 °C, pH 9.5 | 0.123 | 0 | 0.102 | 0.297
PET substrate: aFilm, 70 °C, pH 4.5 | 0 | 0 | 0 | 0
PET substrate: aFilm, 70 °C, pH 5.5 | 0 | 0 | 0 | 0
PET substrate: aFilm, 70 °C, pH 6.5 | 0 | 0 | 0 | 0
PET substrate: aFilm, 70 °C, pH 7.5 | 0 | 0 | 0 | 0
PET substrate: aFilm, 70 °C, pH 8.5 | 0.00345 | 0 | 0 | 0
PET substrate: aFilm, 70 °C, pH 9.5 | 0 | 0 | 0 | 0.00887
PET substrate: cryPow, 60 °C, pH 4.5 | 0.03643 | 0.0116 | 0.016 | 0.0214
PET substrate: cryPow, 60 °C, pH 5.5 | 0.0852 | 0.0306 | 0.0317 | 0.0432
PET substrate: cryPow, 60 °C, pH 6.5 | 0.103 | 0.0384 | 0.0476 | 0.0325
PET substrate: cryPow, 60 °C, pH 7.5 | 0.183 | 0.0693 | 0.0789 | 0.0946
PET substrate: cryPow, 60 °C, pH 8.5 | 0.0922 | 0.0382 | 0.0427 | 0.0338
PET substrate: cryPow, 60 °C, pH 9.5 | 0.0663 | 0.0436 | 0.0717 | 0.336
PET substrate: cryPow, 70 °C, pH 4.5 | 0 | 0 | 0 | 0
PET substrate: cryPow, 70 °C, pH 5.5 | 0.0148 | 0.00828 | 0.00351 | 0.0031
PET substrate: cryPow, 70 °C, pH 6.5 | 0.0346 | 0.0134 | 0.0154 | 0.0109
PET substrate: cryPow, 70 °C, pH 7.5 | 0.0406 | 0.0293 | 0.0196 | 0.0454
PET substrate: cryPow, 70 °C, pH 8.5 | 0.0381 | 0.0155 | 0.0178 | 0.0207
PET substrate: cryPow, 70 °C, pH 9.5 | 0 | 0.0183 | 0.0148 | 0.0926

ANPYERGPNPTDALLEARSGPFSVSEENVSRLSASGFGGGTIYYPRENNTYGAVAISPGYTGTEASIAWLGERIASHGFVVITIDTITTLDQPDSRAEQLNAALNHMINRASSTVRSRIDSSRLAVMGHSMGGGGSLRLASQRPDLKAAIPLTPWHLNKNWSSVTVPTLIIGADLDTIAPVATHAKPFYNSLPSSISKAYLELDGATHFAPNIPNKIIGKYSVAWLKRFVDNDTRYTQFLCPGPRDGLFGEVEEYRSTCPF [TfCut2]
Details | MHET released, [1] [mM] | PET hydrolysis product formed, [3] | PET hydrolysis product formed, [4] | terephthalic acid, [2] [mM]
PET substrate: aFilm, 60 °C, pH 4.5 | 0 | 0 | 0 | 0
PET substrate: aFilm, 60 °C, pH 5.5 | 0.0544 | 0 | 0.0295 | 0.0433
PET substrate: aFilm, 60 °C, pH 6.5 | 0.0658 | 0.00338 | 0.0361 | 0.0508
PET substrate: aFilm, 60 °C, pH 7.5 | 0.213 | 0.0101 | 0.111 | 0.186
PET substrate: aFilm, 60 °C, pH 8.5 | 0.105 | 0.00697 | 0.0556 | 0.0862
PET substrate: aFilm, 60 °C, pH 9.5 | 0.143 | 0.0114 | 0.133 | 0.454
PET substrate: aFilm, 70 °C, pH 4.5 | 0 | 0 | 0 | 0
PET substrate: aFilm, 70 °C, pH 5.5 | 0.00251 | 0 | 0 | 0
PET substrate: aFilm, 70 °C, pH 6.5 | 0.00766 | 0 | 0.0032 | 0
PET substrate: aFilm, 70 °C, pH 7.5 | 0 | 0.00351 | 0 | 0.00319
PET substrate: aFilm, 70 °C, pH 8.5 | 0.0146 | 0.00376 | 0.0109 | 0.00941
PET substrate: aFilm, 70 °C, pH 9.5 | 0 | 0.00877 | 0.0072 | 0.03467
PET substrate: cryPow, 60 °C, pH 4.5 | 0 | 0 | 0 | 0
PET substrate: cryPow, 60 °C, pH 5.5 | 0.0126 | 0 | 0 | 0.0031
PET substrate: cryPow, 60 °C, pH 6.5 | 0.0226 | 0 | 0.00709 | 0.00386
PET substrate: cryPow, 60 °C, pH 7.5 | 0.104 | 0 | 0.0369 | 0.0408
PET substrate: cryPow, 60 °C, pH 8.5 | 0.0471 | 0 | 0.0198 | 0.0159
PET substrate: cryPow, 60 °C, pH 9.5 | 0.0249 | 0.00389 | 0.0223 | 0.0959
PET substrate: cryPow, 70 °C, pH 4.5 | 0 | 0 | 0 | 0
PET substrate: cryPow, 70 °C, pH 5.5 | 0 | 0 | 0 | 0
PET substrate: cryPow, 70 °C, pH 6.5 | 0 | 0 | 0 | 0
PET substrate: cryPow, 70 °C, pH 7.5 | 0 | 0 | 0 | 0
PET substrate: cryPow, 70 °C, pH 8.5 | 0.00527 | 0 | 0 | 0
PET substrate: cryPow, 70 °C, pH 9.5 | 0 | 0 | 0 | 0.0139

QDNPYERGPDPTEDSIEAIRGPFSVATERVSSFASGFGGGTIYYPRETDEGTFGAVAVAPGFTASQGSMSWYGERVASHGFIVFTIDTNTRLDAPGQRGRQLLAALDYLVERSDRKVRERLDPNRLAVMGHSMGGGGSLEATVMRPSLKASIPLTPWHLDKTWGQVQVPTFIIGAELDTIAPVSTHAKPFYESLPSSLPKAYMELCGATHFAPNIPNTTIAKYVISWLKRFVDEDTRYSQFLCPNPTDRAICEYRSTCPY [Cut190*SS]
Details | MHET released, [1] [mM] | PET hydrolysis product formed, [3] | PET hydrolysis product formed, [4] | terephthalic acid, [2] [mM]
PET substrate: aFilm, 60 °C, pH 4.5 | 0 | 0 | 0 | 0
PET substrate: aFilm, 60 °C, pH 5.5 | 0.00789 | 0 | 0 | 0
PET substrate: aFilm, 60 °C, pH 6.5 | 0.04 | 0 | 0.0256 | 0.00808
PET substrate: aFilm, 60 °C, pH 7.5 | 0.208 | 0.00672 | 0.154 | 0.0544
PET substrate: aFilm, 60 °C, pH 8.5 | 0.0945 | 0 | 0.0616 | 0.0241
PET substrate: aFilm, 60 °C, pH 9.5 | 0.155 | 0.0106 | 0.162 | 0.319
PET substrate: aFilm, 70 °C, pH 4.5 | 0 | 0 | 0 | 0
PET substrate: aFilm, 70 °C, pH 5.5 | 0 | 0 | 0 | 0
PET substrate: aFilm, 70 °C, pH 6.5 | 0 | 0 | 0 | 0
PET substrate: aFilm, 70 °C, pH 7.5 | 0.234 | 0.00376 | 0.191 | 0.142
PET substrate: aFilm, 70 °C, pH 8.5 | 0.00747 | 0 | 0 | 0
PET substrate: aFilm, 70 °C, pH 9.5 | 0.0894 | 0.0215 | 0.169 | 0.477
PET substrate: cryPow, 60 °C, pH 4.5 | 0 | 0 | 0 | 0
PET substrate: cryPow, 60 °C, pH 5.5 | 0.0526 | 0 | 0.0274 | 0.0115
PET substrate: cryPow, 60 °C, pH 6.5 | 0.1 | 0.0096 | 0.0533 | 0.016
PET substrate: cryPow, 60 °C, pH 7.5 | 0.202 | 0.0258 | 0.0968 | 0.0676
PET substrate: cryPow, 60 °C, pH 8.5 | 0.171 | 0.0105 | 0.0772 | 0.04
PET substrate: cryPow, 60 °C, pH 9.5 | 0.11 | 0.0109 | 0.0813 | 0.302
PET substrate: cryPow, 70 °C, pH 4.5 | 0 | 0 | 0 | 0
PET substrate: cryPow, 70 °C, pH 5.5 | 0.00708 | 0 | 0 | 0
PET substrate: cryPow, 70 °C, pH 6.5 | 0.0193 | 0 | 0.00998 | 0.00353
PET substrate: cryPow, 70 °C, pH 7.5 | 0.0639 | 0.00904 | 0.031 | 0.0546
PET substrate: cryPow, 70 °C, pH 8.5 | 0.02402 | 0 | 0.0112 | 0.01301
PET substrate: cryPow, 70 °C, pH 9.5 | 0.00359 | 0.00521 | 0.0149 | 0.0846
